In patent US20210355192A1 (YALE UNIVERSITY, published 2021):

B1: His-tagged consensus filaggrin subdomain SD67 (other)
chain: SEDSERWSGSASRNHHGSAQEQSRDGSRHPRSHHEDRAGHGHSADSSRQSGTRHAETSSGGQAASSH
notes: His-tag kept (thrombin degraded the protein); also called short linker subdomain; not shown: 19-residue N-terminal tag (hexa-his, thrombin site, spacer residues)
B2: His-tagged consensus filaggrin subdomain SD150 (other)
chain: SEDSDTQSVSAHGQAGPHQQSHQESARGRSGERSGRSGSFLYQVSTHEQSESAHGRTGPSTGGRQGSHHEQARDSSRHSASQEGQDTIRGHPGSSRGGRQGSHHEQSVDRSGHSGSHHSHTTSQGRSDASRGQSGSRSASRQTRNEEQSG
notes: His-tag kept (thrombin degraded the protein); also called long linker subdomain; not shown: 19-residue N-terminal tag (hexa-his, thrombin site, spacer residues)

Target: the molecule itself
Experiment: gel filtration with multi-angle light scattering (self-association)
Description: Multi-angle Light Scattering. PFcR and subdomains (1 mg/ml) in 20 mM Tris-HCl buffer (pH 7.4) containing 0.2M NaCl was applied at 0.5 ml per minute to Superdex200 16/600 (GE, Boston, Mass.) gel filtration column in-line with DAWN HELEOS II light scattering instrument (Wyatt Technology, Santa Barbra, Calif.; laser wavelength 658 nm). Data collection and analysis used Astra software (Wyatt technology).

Protein	binding result
B1	no binding (tested: 1 mg/ml)
B2	no binding (tested: 1 mg/ml)
